Test results taken from patent US20260191954A1, “COMPOSITIONS AND METHODS FOR NEOADJUVANT TREATMENT IN CANCER” (INNATE PHARMA, priority 2022, published 2026).
“And” between values parts separate entries of the source, which are not always exact repeats. Equal values may be shown once.

Tests used:
OAW42 (CD39+) cells = experiment: eATP release in OAW42 (CD39+) cells with IPH5201 and docetaxel; format: cell-based; conditions: IPH5201 10 or 50 μg/mL + docetaxel dose range, 30 h, FIG. 3B
Experimental: OAW42 (CD39+) cells were incubated with 10 or 50 μg/mL of IPH5201 and treated with a dose range of docetaxel. The measure of eATP release was performed 30 h after docetaxel treatment. eATP was measured in the cell culture supernatant with a luminescent-based assay (CellTiter-Glo®) and expressed in Luminescence Arbitrary Unit (AU). Means+/−SD.

[1] = target: T1, free membrane CD39 (mCD39) on monocytes (Homo sapiens, UniProt P49961); experiment: Indirect response PD model: IPH5201 concentration vs free mCD39 on monocytes, phase 1 patients; format: in vivo
T1 construct: endogenous in cells; host or cells: monocytes and B cells in patients' blood
T1 sequence (P49961 1-510): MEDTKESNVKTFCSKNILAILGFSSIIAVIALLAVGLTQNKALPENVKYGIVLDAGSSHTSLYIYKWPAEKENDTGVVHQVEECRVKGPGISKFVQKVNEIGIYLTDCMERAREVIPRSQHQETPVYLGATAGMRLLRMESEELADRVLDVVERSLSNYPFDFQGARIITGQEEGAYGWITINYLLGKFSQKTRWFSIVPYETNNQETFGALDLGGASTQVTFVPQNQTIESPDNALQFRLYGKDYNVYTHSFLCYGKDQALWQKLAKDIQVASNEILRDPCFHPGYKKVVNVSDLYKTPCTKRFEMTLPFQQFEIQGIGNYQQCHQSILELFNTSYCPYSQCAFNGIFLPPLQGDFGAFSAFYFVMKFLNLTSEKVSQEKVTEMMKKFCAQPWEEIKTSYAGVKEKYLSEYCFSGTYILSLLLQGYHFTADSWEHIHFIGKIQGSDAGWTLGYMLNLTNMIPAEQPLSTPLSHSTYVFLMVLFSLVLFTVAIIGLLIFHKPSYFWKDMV
Source text: (§1) PK/PD modelling and simulation were used to guide selection of doses. IPH5201 PK data from 45 patients and PD data of free membrane CD39 (mCD39) occupancy on monocytes from 43 patients were available.
An indirect response PD model (inhibition on Kin) was then built to describe the relationship between IPH5201 concentrations and free mCD39 on monocytes (FIG. 10). The model accurately predicted CD39free+ of monocytes (%). […] The final indirect response model was then used for parametric simulation.

[2] = target: T2, membrane-bound CD39 on immune cells (Homo sapiens, UniProt P49961); experiment: Free CD39 on monocytes and B cells in patient blood (flow cytometry); format: in vivo
T2 construct: To assess free CD39 on monocytes and B cells, blood samples are spiked with an antibody; endogenous in cells; host or cells: monocytes and B cells in patients' blood
T2 sequence (P49961 1-510): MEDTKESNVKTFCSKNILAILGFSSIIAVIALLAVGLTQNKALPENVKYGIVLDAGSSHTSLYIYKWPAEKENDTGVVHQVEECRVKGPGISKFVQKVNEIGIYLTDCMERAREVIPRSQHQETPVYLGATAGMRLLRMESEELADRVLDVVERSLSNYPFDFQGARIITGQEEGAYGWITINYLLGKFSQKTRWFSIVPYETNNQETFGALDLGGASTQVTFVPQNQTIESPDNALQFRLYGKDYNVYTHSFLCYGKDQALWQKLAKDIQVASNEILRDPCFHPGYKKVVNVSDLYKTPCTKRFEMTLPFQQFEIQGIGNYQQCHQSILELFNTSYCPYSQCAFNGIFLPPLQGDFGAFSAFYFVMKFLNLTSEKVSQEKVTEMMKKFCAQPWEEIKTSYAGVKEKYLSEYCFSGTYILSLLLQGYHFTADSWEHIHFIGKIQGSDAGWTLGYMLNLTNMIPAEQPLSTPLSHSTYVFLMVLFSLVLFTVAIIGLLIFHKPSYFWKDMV
Experimental: CD39 occupancy by IPH5201 in samples from patients was determined by assessing free soluble CD39 and free membrane bound CD39.
To assess free CD39 on monocytes and B cells, blood samples are spiked with an antibody having the VH and VL of IPH5201 and a mouse Fc domain and labelled with a fluorochrome. A second non-competing anti-CD39 monoclonal antibody labelled with a distinct fluorochrome is used to bind to a site on CD39 distinct from the capture antibody. CD14, CD19 and CD45 are detected by incubation with anti-CD14, CD19 and CD45 monoclonal antibodies each labelled with a distinct fluorochrome. Binding is detected by flow cytometry.

[3] = Pharmacokinetics of IPH5201 in phase 1 patients; format: in vivo, human
Experimental: A first-in-human, multicentre, non-randomised, open-label, phase 1 study was conducted in order to assess the safety, efficacy, pharmacokinetics (PK) and pharmacodynamics (PD) of IPH5201±durvalumab (Imfinzi™) in patients with advanced solid tumours. The study consisted of two consecutive dose-escalation parts: • Part 1: Ascending doses of IPH5201 (100, 300, 1000 and 3000 mg) every 3 weeks (Q3W). • Part 2: Ascending doses of IPH5201 (300, 1000 and 3000 mg) and 1500 mg durvalumab Q3W.
as §1
On the left hand panel, curves from bottom to top represent 100 mg, 300 mg, 1000 mg and 3000 mg doses of IPH5201; on the right hand panel curves from bottom to top represent 300 mg, 1000 mg (up to the 21 day time point) and 3000 mg doses of IPH5201. The PK of IPH5201 was non-linear at ≤300 mg and linear at ≥1000 mg. Free soluble CD39 was above the lower limit of quantitation at cycle 1, day 2 or later in 6/40 patients (n=2, 100 mg; n=1, 1000 mg; n=3, 3000 mg).

CD39 enzyme activity = target: T3, CD39 enzyme activity (Homo sapiens, UniProt P49961); experiment: Tumoral CD39 enzyme activity in patient biopsies (Wachstein-Meisel assay); format: in vivo; conditions: for Significant overall decrease in CD39 enzymatic activity?: Day 15 vs screening biopsy
T3 construct: Tumour samples were obtained from patients with pancreatic cancer and assessed for CD39 enzyme activity; from tissue; host or cells: patients' tumour biopsies (tumour, stroma, vasculature), screening vs Day 15
T3 sequence (P49961 1-510): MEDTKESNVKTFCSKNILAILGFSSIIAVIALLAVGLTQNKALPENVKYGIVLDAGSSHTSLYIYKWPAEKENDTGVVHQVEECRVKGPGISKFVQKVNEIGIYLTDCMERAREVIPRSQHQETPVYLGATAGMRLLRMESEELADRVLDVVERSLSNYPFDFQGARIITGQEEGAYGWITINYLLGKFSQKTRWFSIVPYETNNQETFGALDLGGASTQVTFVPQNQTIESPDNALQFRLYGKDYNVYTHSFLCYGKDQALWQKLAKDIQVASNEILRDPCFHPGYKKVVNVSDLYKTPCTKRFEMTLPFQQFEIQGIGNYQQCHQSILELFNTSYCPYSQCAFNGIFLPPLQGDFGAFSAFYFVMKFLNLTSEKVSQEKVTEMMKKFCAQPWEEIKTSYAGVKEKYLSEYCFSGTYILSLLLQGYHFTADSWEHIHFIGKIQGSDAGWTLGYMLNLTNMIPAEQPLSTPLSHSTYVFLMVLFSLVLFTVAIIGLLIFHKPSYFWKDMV

[4] = serum IPH5201, fixed doses Q3W, mono or with durvalumab, FIG. 12

B1: IPH5201: humanized anti-CD39 antibody having the respective heavy and light chain amino acid sequences of SEQ ID NOS: 10 and 11 (antibody)
heavy: QVQLVQSGAEVKKPGASVKVSCKASGYTFTDYNMHWVRQAPGQRLEWIGYIVPLNGGSTFNQKFKGRATITVDTSARTAYMELSSLRSEDTAVYYCARGGTRFAYWGQGTLVTVSSASTKGPSVFPLAPSSKSTSGGTAALGCLVKDYFPEPVTVSWNSGALTSGVHTFPAVLQSSGLYSLSSVVTVPSSSLGTQTYICNVNHKPSNTKVDKRVEPKSCDKTHTCPPCPAPEAEGAPSVFLFPPKPKDTLMISRTPEVTCVVVDVSHEDPEVKFNWYVDGVEVHNAKTKPREEQYNSTYRVVSVLTVLHQDWLNGKEYKCKVSNKALPSSIEKTISKAKGQPREPQVYTLPPSREEMTKNQVSLTCLVKGFYPSDIAVEWESNGQPENNYKTTPPVLDSDGSFFLYSKLTVDKSRWQQGNVFSCSVMHEALHNHYTQKSLSLSPGK
light: DIVMTQSPDSLAVSLGERATINCRASESVDNFGVSFMYWFQQKPGQPPKLLIYGASNQGSGVPDRFSGSGSGTDFTLTISSLQAEDVAVYYCQQTKEVPYTFGGGTKVEIKRTVAAPSVFIFPPSDEQLKSGTASVVCLLNNFYPREAKVQWKVDNALQSGNSQESVTEQDSKDSTYSLSSTLTLSKADYEKHKVYACEVTHQGLSSPVTKSFNRGEC
OAW42 (CD39+) cells
  eATP accumulation: eATP accumulated significantly
[1]; indirect response PD model (inhibition on Kin), model parameter
  Production rate constant: 20.5 h⁻¹
[1]; indirect response PD model, monocytes
  Maximum inhibition (IMAX) of CD39free+: 0.926 and 0.92
[2]; 100 mg IPH5201 dose, cycle 2 day 1
  free CD39 at C2D1, monocytes: full rebound
[2]; 300 mg IPH5201 dose, cycle 2 day 1
  free CD39 at C2D1, monocytes: partial rebound
[2]; only the 100 mg IPH5201 dose, cycle 2 day 1
  free CD39 at C2D1, B-cells: rebound
[2]; patient samples, FIG. 11B
  dose at which IPH5201 saturated binding of membrane-bound CD39 on immune cells: 3000 mg
[3]; PK data from 45 patients
  population PK model best describing IPH5201 PK: 2-compartment model with parallel linear and saturatable kinetics
[3]; [4]
  dose range in which PK was linear: ≥ 1000 mg
  dose range in which PK was non-linear: ≤ 300 mg
CD39 enzyme activity; 3000 mg dose of IPH5201
  tumoral CD39 enzymatic activity: showed a decrease in enzymatic activity
CD39 enzyme activity; Patient 1, Cohort 1000 mg, NSCLC (squamous)
  Significant overall decrease in CD39 enzymatic activity?: No
CD39 enzyme activity; Patient 3, Cohort 1000 mg, Pancreatic
  Significant overall decrease in CD39 enzymatic activity?: Yes
CD39 enzyme activity; Patient 4, Cohort 3000 mg, Pancreatic
  Significant overall decrease in CD39 enzymatic activity?: Yes
CD39 enzyme activity; Patient 5, Cohort 3000 mg, Pancreatic
  Significant overall decrease in CD39 enzymatic activity?: Yes
CD39 enzyme activity; Patient 6, Cohort 3000 mg, Pancreatic
  Significant overall decrease in CD39 enzymatic activity?: Yes
CD39 enzyme activity; Patient 7, Cohort 3000 mg, NSCLC (squamous)
  Significant overall decrease in CD39 enzymatic activity?: Yes
CD39 enzyme activity; patients with available samples
  patients in whom tumoral CD39 enzymatic activity decreased: 5/8
